Data set [1] deals with amino-terminal acidic domain of TRF1 fused to LexA (LexAd68-C) (human) (UniProt P54274). Put plainly: cell-based or functional assay.
Data set [2] has as its target T1, GAD-tankyrase hybrid containing 10 internal ANK repeats (9-19) (TR1L-12) (human, UniProt O95271 436-797).
T1 construct: the construct holds only ANK repeats 9-19; also called 10-ANK repeat domain of tankyrase
T1 sequence: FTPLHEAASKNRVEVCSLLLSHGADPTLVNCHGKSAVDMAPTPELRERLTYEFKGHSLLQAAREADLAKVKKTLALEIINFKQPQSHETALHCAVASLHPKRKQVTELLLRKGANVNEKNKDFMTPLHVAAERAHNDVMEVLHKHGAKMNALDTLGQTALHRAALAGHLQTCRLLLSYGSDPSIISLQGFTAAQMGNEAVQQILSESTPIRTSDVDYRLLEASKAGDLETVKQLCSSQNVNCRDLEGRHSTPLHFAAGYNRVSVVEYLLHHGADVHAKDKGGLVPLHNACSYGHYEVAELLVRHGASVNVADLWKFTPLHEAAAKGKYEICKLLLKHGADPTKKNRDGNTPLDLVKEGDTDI
Put plainly: yeast two-hybrid, β-galactosidase; LexA without TRF1 sequences. The protocol: TR1L-4 and TR1L-12 were isolated from a human liver two-hybrid cDNA library (Clontech) created in pGad10. The library was screened with human full length TRF1 cDNA fused to LexA (LexA-TRF1) [Bianchi et al., EMBO J., 16:1785-1794 (1997)] in the yeast strain L40 as described [Hollenberg et al., Mol. Cell Biol., 15:3813-3822 (1995)]. Two-hybrid analysis was performed as described by Bianchi et al. [EMBO J., 16:1785-1794 (1997)]. β-galactosidase assays for the two-hybrid analysis was performed as described by Bianchi et al. [EMBO J., 16:1785-1794 (1997)].
Two-hybrid analysis was used to determine the interacting domains between tankyrase and TRF1. […] To determine the tankyrase-interacting domain in TRF1, two-hybrid analysis was performed with the 10-ANK repeat domain of TR1L-12 fused to the GAL4 activation domain (GAD-tankyrase) and full-length and deletion constructs of TRF1 fused to LexA. […] As observed previously, the amino-terminal acidic domain of TFR1 (LexAd68-C) activated transcription even in the absence of tankyrase sequences in the GAD fusion partner. […] Deletion of the acidic domain of TRF1 (ΔN66-LexA) abolished the interaction with GAD-tankyrase.

For data set [3], the target named is T2, FLAG-tankyrase (encoding amino acids 2-1327 of SEQ ID NO:2) (human, UniProt O95271 2-1327).
T2 construct: Expressed by transient transfection in HeLaI cells; also called exogenous tankyrase; transfected tankyrase
T2 sequence: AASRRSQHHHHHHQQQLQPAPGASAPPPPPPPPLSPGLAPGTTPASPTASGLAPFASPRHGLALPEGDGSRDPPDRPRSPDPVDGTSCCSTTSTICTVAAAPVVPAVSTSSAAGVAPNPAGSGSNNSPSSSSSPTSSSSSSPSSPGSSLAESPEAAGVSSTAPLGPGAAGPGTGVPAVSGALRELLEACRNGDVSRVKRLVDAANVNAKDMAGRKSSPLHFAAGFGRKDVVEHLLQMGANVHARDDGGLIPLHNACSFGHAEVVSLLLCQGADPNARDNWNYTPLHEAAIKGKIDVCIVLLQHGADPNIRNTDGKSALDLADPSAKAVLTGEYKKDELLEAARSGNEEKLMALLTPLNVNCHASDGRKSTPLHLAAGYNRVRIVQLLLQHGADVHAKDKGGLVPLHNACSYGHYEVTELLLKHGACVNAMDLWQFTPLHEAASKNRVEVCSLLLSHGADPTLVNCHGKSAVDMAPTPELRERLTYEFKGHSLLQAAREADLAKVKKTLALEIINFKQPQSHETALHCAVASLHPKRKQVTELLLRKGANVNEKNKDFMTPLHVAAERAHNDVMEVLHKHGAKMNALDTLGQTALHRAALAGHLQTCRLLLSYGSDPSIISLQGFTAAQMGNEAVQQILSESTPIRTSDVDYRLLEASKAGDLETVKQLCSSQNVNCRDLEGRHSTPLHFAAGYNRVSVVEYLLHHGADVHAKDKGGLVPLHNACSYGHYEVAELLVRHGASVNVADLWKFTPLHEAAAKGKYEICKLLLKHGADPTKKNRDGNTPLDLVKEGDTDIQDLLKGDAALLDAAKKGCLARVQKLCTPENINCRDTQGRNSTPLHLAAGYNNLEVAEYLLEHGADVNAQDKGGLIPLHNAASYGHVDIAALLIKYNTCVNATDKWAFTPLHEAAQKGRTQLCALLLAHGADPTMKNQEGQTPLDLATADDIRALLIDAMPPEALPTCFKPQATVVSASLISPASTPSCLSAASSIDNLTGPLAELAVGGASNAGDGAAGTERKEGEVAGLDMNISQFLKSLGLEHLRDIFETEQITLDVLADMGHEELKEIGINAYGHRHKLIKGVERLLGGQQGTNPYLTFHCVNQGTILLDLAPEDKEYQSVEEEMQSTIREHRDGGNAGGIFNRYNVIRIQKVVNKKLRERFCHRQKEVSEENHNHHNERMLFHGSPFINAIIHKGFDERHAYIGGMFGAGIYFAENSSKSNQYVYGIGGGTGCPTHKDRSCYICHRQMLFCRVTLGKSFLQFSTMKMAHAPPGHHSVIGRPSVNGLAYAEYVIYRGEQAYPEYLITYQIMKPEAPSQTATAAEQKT
Put plainly: indirect immunofluorescence of co-transfected HeLaI cells (co-localization, nuclear translocation).

Data set [4] concerns the target T3, TRF2 (telomeric repeat binding factor 2), Q15554.
T3 chain: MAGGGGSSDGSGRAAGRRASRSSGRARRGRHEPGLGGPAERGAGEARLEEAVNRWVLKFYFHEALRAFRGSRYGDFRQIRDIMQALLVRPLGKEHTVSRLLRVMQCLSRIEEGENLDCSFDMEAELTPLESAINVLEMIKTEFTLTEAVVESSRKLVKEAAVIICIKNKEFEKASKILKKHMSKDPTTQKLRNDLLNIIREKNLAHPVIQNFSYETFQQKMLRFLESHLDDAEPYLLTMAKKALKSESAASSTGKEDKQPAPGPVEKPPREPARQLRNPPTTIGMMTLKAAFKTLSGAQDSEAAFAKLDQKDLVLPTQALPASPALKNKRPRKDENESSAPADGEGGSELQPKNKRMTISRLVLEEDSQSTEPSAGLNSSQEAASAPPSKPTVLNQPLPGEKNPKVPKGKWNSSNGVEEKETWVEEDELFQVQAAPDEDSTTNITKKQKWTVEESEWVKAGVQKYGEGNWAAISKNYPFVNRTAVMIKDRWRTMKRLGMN

Data set [5] addresses T4, baculovirus-derived TRF1, P54274.
T4 chain: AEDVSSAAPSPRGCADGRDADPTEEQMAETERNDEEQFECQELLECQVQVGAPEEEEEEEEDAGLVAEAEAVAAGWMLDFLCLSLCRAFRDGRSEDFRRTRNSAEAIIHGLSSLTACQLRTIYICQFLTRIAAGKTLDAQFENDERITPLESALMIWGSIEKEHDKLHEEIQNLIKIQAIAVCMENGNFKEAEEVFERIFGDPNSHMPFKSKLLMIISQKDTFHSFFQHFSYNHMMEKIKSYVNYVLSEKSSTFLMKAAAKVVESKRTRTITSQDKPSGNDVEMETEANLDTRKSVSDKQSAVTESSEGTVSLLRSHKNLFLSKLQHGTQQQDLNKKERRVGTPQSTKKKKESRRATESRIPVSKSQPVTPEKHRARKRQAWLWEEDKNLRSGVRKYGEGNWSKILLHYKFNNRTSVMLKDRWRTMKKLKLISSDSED

In turn, “GAD-tankyrase hybrid containing 10 internal ANK repeats (9-19) (TR1L-12) (from UniProt O95271 436-797)” gave a β-galactosidase levels (two-hybrid) in data set [1] of 50.4 units.

B1: LexA (alone) (other, UniProt P0A7C2 1-202, looked up)
chain: MKALTARQQEVFDLIRDHISQTGMPPTRAEIAQRLGFRSPNAAEEHLKALARKGVIEIVSGASRGIRLLQEEEEGLPLVGRVAAGEPLLAQQHIEGHYQVDPSLFKPNADFLLRVSGMSMKDIGIMDGDLLAVHKTQDVRNGQVVVARIDDEVTVKRLKKQGNKVELLPENSEFKPIVVDLRQQSFTIEGLAVGVIRNGDWL
notes: Control
Regarding B1, the binding result in data set [2] is “no binding”.

B2: human TRF1 (telomeric repeat binding factor 1), expressed from pcDNA3-hTRF1 in HeLaI cells (other, UniProt P54274 1-439, looked up)
chain: MAEDVSSAAPSPRGCADGRDADPTEEQMAETERNDEEQFECQELLECQVQVGAPEEEEEEEEDAGLVAEAEAVAAGWMLDFLCLSLCRAFRDGRSEDFRRTRNSAEAIIHGLSSLTACQLRTIYICQFLTRIAAGKTLDAQFENDERITPLESALMIWGSIEKEHDKLHEEIQNLIKIQAIAVCMENGNFKEAEEVFERIFGDPNSHMPFKSKLLMIISQKDTFHSFFQHFSYNHMMEKIKSYVNYVLSEKSSTFLMKAAAKVVESKRTRTITSQDKPSGNDVEMETEANLDTRKSVSDKQSAVTESSEGTVSLLRSHKNLFLSKLQHGTQQQDLNKKERRVGTPQSTKKKKESRRATESRIPVSKSQPVTPEKHRARKRQAWLWEEDKNLRSGVRKYGEGNWSKILLHYKFNNRTSVMLKDRWRTMKKLKLISSDSED
For B2, the binding result in data set [3] is recorded as “binds”.

B3: baculovirus-derived N-terminally [His]6-tagged fusion protein of human tankyrase (protein)
chain: MAASRRSQHHHHHHQQQLQPAPGASAPPPPPPPPLSPGLAPGTTPASPTASGLAPFASPRHGLALPEGDGSRDPPDRPRSPDPVDGTSCCSTTSTICTVAAAPVVPAVSTSSAAGVAPNPAGSGSNNSPSSSSSPTSSSSSSPSSPGSSLAESPEAAGVSSTAPLGPGAAGPGTGVPAVSGALRELLEACRNGDVSRVKRLVDAANVNAKDMAGRKSSPLHFAAGFGRKDVVEHLLQMGANVHARDDGGLIPLHNACSFGHAEVVSLLLCQGADPNARDNWNYTPLHEAAIKGKIDVCIVLLQHGADPNIRNTDGKSALDLADPSAKAVLTGEYKKDELLEAARSGNEEKLMALLTPLNVNCHASDGRKSTPLHLAAGYNRVRIVQLLLQHGADVHAKDKGGLVPLHNACSYGHYEVTELLLKHGACVNAMDLWQFTPLHEAASKNRVEVCSLLLSHGADPTLVNCHGKSAVDMAPTPELRERLTYEFKGHSLLQAAREADLAKVKKTLALEIINFKQPQSHETALHCAVASLHPKRKQVTELLLRKGANVNEKNKDFMTPLHVAAERAHNDVMEVLHKHGAKMNALDTLGQTALHRAALAGHLQTCRLLLSYGSDPSIISLQGFTAAQMGNEAVQQILSESTPIRTSDVDYRLLEASKAGDLETVKQLCSSQNVNCRDLEGRHSTPLHFAAGYNRVSVVEYLLHHGADVHAKDKGGLVPLHNACSYGHYEVAELLVRHGASVNVADLWKFTPLHEAAAKGKYEICKLLLKHGADPTKKNRDGNTPLDLVKEGDTDIQDLLKGDAALLDAAKKGCLARVQKLCTPENINCRDTQGRNSTPLHLAAGYNNLEVAEYLLEHGADVNAQDKGGLIPLHNAASYGHVDIAALLIKYNTCVNATDKWAFTPLHEAAQKGRTQLCALLLAHGADPTMKNQEGQTPLDLATADDIRALLIDAMPPEALPTCFKPQATVVSASLISPASTPSCLSAASSIDNLTGPLAELAVGGASNAGDGAAGTERKEGEVAGLDMNISQFLKSLGLEHLRDIFETEQITLDVLADMGHEELKEIGINAYGHRHKLIKGVERLLGGQQGTNPYLTFHCVNQGTILLDLAPEDKEYQSVEEEMQSTIREHRDGGNAGGIFNRYNVIRIQKVVNKKLRERFCHRQKEVSEENHNHHNERMLFHGSPFINAIIHKGFDERHAYIGGMFGAGIYFAENSSKSNQYVYGIGGGTGCPTHKDRSCYICHRQMLFCRVTLGKSFLQFSTMKMAHAPPGHHSVIGRPSVNGLAYAEYVIYRGEQAYPEYLITYQIMKPEAPSQTATAAEQKT
B3: in data set [4], the “ADP-ribosylation (PARP assay)” value is listed as “TRF2 is not a substrate for modification in vitro”. For the same molecule, the “ADP-ribosylation of TRF1 (PARP assay with [32P]NAD+)” value in data set [5] was “Tankyrase also has the ability to modify TRF1”.
